The values that follow come from article PMC3531455, “PTH1 Receptor Is Involved in Mediating Cellular Response to Long-Chain Polyunsaturated Fatty Acids” (PLoS ONE, 2012).

In experiment [1] the target is T1, PTH1 receptor (PTH1R) (Homo sapiens, UniProt Q03431).
T1 construct: PTH1R in membrane fractions of transfected HEK293 cells
T1 sequence (Q03431 27-593): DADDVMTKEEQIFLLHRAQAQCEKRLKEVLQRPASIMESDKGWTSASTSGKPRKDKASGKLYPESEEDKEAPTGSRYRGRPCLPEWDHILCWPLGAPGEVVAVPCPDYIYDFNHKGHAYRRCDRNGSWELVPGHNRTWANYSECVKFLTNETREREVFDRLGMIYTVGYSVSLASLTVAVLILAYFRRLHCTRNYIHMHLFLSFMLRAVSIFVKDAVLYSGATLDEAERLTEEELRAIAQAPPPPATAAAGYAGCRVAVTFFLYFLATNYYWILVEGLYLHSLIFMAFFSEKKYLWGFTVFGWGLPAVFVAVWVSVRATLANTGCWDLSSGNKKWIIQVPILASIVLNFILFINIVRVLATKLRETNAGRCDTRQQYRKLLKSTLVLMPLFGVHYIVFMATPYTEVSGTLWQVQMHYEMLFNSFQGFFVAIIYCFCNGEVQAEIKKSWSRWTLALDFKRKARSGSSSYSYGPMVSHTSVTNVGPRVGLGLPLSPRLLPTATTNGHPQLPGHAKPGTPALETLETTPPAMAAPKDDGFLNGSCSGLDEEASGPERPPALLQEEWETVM
The experiment is described as follows: competitive fluorescence anisotropy displacement of PTH([…])TMR; supported by PTH-CC FRET conformational sensor. The class given is binding. A general note: In fluorescence polarisation assays a small probe gives low polarisation when free and higher when bound to something large.

Experiment [2] deals with Parathyroid hormone type 1 receptor (PTH1R) (human) (UniProt Q03431). The experiment is described as follows: fluorescence polarisation; fluorescence anisotropy, competitive displacement of 2 nM PTH(1–34)^TMR from PTH1R membrane fractions of transfected HEK293 cells; DPBS, 4 hours, room temperature; 96-well plates, 150 µL; IC50 converted to Ki by the Cheng-Prusoff equation.

Experiment [3] addresses T1, PTH1 receptor (PTH1R). The experiment is described as follows: competitive fluorescence anisotropy displacement of PTH([…])TMR. In kind it is binding.
For experiment [4], the target named is Parathyroid hormone type 1 receptor (PTH1R) (human) (UniProt Q03431).

One may read the Ki as a measure of affinity in units of concentration, obtained from inhibition or displacement. At PTH1 receptor (PTH1R) [1], `CC/C=C\C/C=C\C/C=C\C/C=C\C/C=C\CCCC(=O)O` [EPA, eicosapentaenoic acid] displayed a Ki of 0.69 ± 0.25 nM.
In experiment [2], “Human [Lys-13(Nε-5-carboxy-TMR)]PTH(1–34)NH2 (peptide)” yielded a Ki of 4.66 nM.
`CC/C=C\C/C=C\C/C=C\C/C=C\C/C=C\C/C=C\CCC(=O)O` [DHA, docosahexaenoic acid]: the Ki on PTH1 receptor (PTH1R) [3] worked out at 0.54 ± 0.16 nM.
Broadly, the IC50 is the concentration that inhibits the measured activity by half. The low end stands for higher potency, the high end for lower potency. With Human PTH(1–34) (peptide), the ERK1/2 phosphorylation (Emax = pERKmax/ERK, western blot) in HEK293 cells transfected with PTH1R, PTH(1–34) dose response, 5 minutes; no significant increase in untransfected HEK293 cells in experiment [4] stood at 3.5 pERK/ERK. In experiment [2], this compound returned an IC50 of 3.43 nM and a Ki of 2.4 nM.
